Results: patent publication US20110105394A1 (Novo Nordisk, published 2011)
*1 amine or outer side, *2 acyl side, *3 side chain or, on linkers, in order; H or OH if unused. Bridges are numbered along the chain shown (N, C = ends). Where no end group is shown, it is not given here. The star is where a group is joined. X2 = (S)‑4‑Carboxy‑4‑(19-carboxynonadecanoylamino)butyryl, O=C(O)CCCCCCCCCCCCCCCCCCC(=O)N[C@@H](CCC(=O)*)C(=O)O; C20 diacid = O=C(O)CCCCCCCCCCCCCCCCCCC(=O)*; γGlu = O=C(O)[C@H](CCC(=O)[*:2])N[*:1]; AEEA = NCCOCCOCC(=O)O

T1: Amylin 3(a) receptor (human calcitonin receptor (CTa) with RAMP-3) (human, UniProt P30988 25-474; O60896 24-148, limits assumed)
T1 sequence (looked up) 1: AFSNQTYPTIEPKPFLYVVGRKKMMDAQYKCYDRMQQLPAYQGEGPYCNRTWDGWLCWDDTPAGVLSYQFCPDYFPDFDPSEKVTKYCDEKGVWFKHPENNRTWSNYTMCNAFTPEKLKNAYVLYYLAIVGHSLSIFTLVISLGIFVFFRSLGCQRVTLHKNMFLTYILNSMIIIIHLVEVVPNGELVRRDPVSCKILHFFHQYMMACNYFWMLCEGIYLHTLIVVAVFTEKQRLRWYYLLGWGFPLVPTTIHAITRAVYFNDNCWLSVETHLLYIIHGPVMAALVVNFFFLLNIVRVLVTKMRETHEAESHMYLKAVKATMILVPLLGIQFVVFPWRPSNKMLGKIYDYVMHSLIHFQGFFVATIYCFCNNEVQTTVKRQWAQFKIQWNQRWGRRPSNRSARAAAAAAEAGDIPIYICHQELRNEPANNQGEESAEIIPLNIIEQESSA
T1 sequence (looked up) 2: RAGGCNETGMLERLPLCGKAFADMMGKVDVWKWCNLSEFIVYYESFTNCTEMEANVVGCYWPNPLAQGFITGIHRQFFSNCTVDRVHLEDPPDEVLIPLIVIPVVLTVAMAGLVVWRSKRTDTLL

B1: N-alpha-[3-(2-{2-[2-(2-{2-[2-(2-{2-[(S)-4-Carboxy-4-(17-carboxyheptadecanoylamino) … (peptide)
peptide: RCNTATCATQRLANFLHHSSNNFGPILPPTNVGSNTY-NH2
modifications: disulfide 2-7; not fully specified (N-terminus); printed as N-alpha-[3-(2-{2-[2-(2-{2-[2-(2-{2-[(S)-4-Carboxy-4-(17-carboxyheptadecanoylamino) butyrylamino]ethoxy}ethoxy)ethoxy]ethoxy}ethoxy)ethoxy]ethoxy}ethoxy)propionylamino][Arg1,His17]-pramlintide
B2: N-alpha-[(S)-4-Carboxy-4-(19-carboxynonadecanoylamino)butyryl]-Glu-Arg-[Glu1,Arg17,Ala25,Pro26,Ser28,Ser29]-pramlintide (peptide)
peptide: X2-ERECNTATCATQRLANFLRHSSNNFGAPLSSTNVGSNTY-NH2
modifications: disulfide 4-9
SMILES: CC(C)C[C@H](NC(=O)[C@H](CCCNC(=N)N)NC(=O)[C@H](CCC(N)=O)NC(=O)[C@@H](NC(=O)[C@H](C)NC(=O)[C@@H]1CSSC[C@H](NC(=O)[C@H](CCC(=O)O)NC(=O)[C@H](CCCNC(=N)N)NC(=O)[C@H](CCC(=O)O)NC(=O)CC[C@H](NC(=O)CCCCCCCCCCCCCCCCCCC(=O)O)C(=O)O)C(=O)N[C@@H](CC(N)=O)C(=O)N[C@@H]([C@@H](C)O)C(=O)N[C@@H](C)C(=O)N[C@@H]([C@@H](C)O)C(=O)N1)[C@@H](C)O)C(=O)N[C@@H](C)C(=O)N[C@@H](CC(N)=O)C(=O)N[C@@H](Cc1ccccc1)C(=O)N[C@@H](CC(C)C)C(=O)N[C@@H](CCCNC(=N)N)C(=O)N[C@@H](Cc1c[nH]cn1)C(=O)N[C@@H](CO)C(=O)N[C@@H](CO)C(=O)N[C@@H](CC(N)=O)C(=O)N[C@@H](CC(N)=O)C(=O)N[C@@H](Cc1ccccc1)C(=O)NCC(=O)N[C@@H](C)C(=O)N1CCC[C@H]1C(=O)N[C@@H](CC(C)C)C(=O)N[C@@H](CO)C(=O)N[C@@H](CO)C(=O)N[C@H](C(=O)N[C@@H](CC(N)=O)C(=O)N[C@H](C(=O)NCC(=O)N[C@@H](CO)C(=O)N[C@@H](CC(N)=O)C(=O)N[C@H](C(=O)N[C@@H](Cc1ccc(O)cc1)C(N)=O)[C@@H](C)O)C(C)C)[C@@H](C)O
B3: N-alpha-[2-(2-{2-[4-(S)-Carboxy-4-(19-carboxynonadecanoylamino)butyrylamino]ethoxy}ethoxy)acetyl]-His-His-[Arg1,His17]-pramlintide (peptide)
peptide: {C20 diacid-γGlu-AEEA}-HHRCNTATCATQRLANFLHHSSNNFGPILPPTNVGSNTY-NH2
modifications: disulfide 4-9
SMILES: CC[C@H](C)[C@H](NC(=O)[C@@H]1CCCN1C(=O)CNC(=O)[C@H](Cc1ccccc1)NC(=O)[C@H](CC(N)=O)NC(=O)[C@H](CC(N)=O)NC(=O)[C@H](CO)NC(=O)[C@H](CO)NC(=O)[C@H](Cc1c[nH]cn1)NC(=O)[C@H](Cc1c[nH]cn1)NC(=O)[C@H](CC(C)C)NC(=O)[C@H](Cc1ccccc1)NC(=O)[C@H](CC(N)=O)NC(=O)[C@H](C)NC(=O)[C@H](CC(C)C)NC(=O)[C@H](CCCNC(=N)N)NC(=O)[C@H](CCC(N)=O)NC(=O)[C@@H](NC(=O)[C@H](C)NC(=O)[C@@H]1CSSC[C@H](NC(=O)[C@H](CCCNC(=N)N)NC(=O)[C@H](Cc2c[nH]cn2)NC(=O)[C@H](Cc2c[nH]cn2)NC(=O)COCCOCCNC(=O)CC[C@H](NC(=O)CCCCCCCCCCCCCCCCCCC(=O)O)C(=O)O)C(=O)N[C@@H](CC(N)=O)C(=O)N[C@@H]([C@@H](C)O)C(=O)N[C@@H](C)C(=O)N[C@@H]([C@@H](C)O)C(=O)N1)[C@@H](C)O)C(=O)N[C@@H](CC(C)C)C(=O)N1CCC[C@H]1C(=O)N1CCC[C@H]1C(=O)N[C@H](C(=O)N[C@@H](CC(N)=O)C(=O)N[C@H](C(=O)NCC(=O)N[C@@H](CO)C(=O)N[C@@H](CC(N)=O)C(=O)N[C@H](C(=O)N[C@@H](Cc1ccc(O)cc1)C(N)=O)[C@@H](C)O)C(C)C)[C@@H](C)O
B4: N-alpha-[(S)-4-Carboxy-4-(19-carboxynonadecanoylamino)butyryl]-[Glu 1,His17]-pramlintide (peptide)
peptide: {C20 diacid-γGlu}-ECNTATCATQRLANFLHHSSNNFGPILPPTNVGSNTY-NH2
modifications: disulfide 2-7
SMILES: CC[C@H](C)[C@H](NC(=O)[C@@H]1CCCN1C(=O)CNC(=O)[C@H](Cc1ccccc1)NC(=O)[C@H](CC(N)=O)NC(=O)[C@H](CC(N)=O)NC(=O)[C@H](CO)NC(=O)[C@H](CO)NC(=O)[C@H](Cc1c[nH]cn1)NC(=O)[C@H](Cc1c[nH]cn1)NC(=O)[C@H](CC(C)C)NC(=O)[C@H](Cc1ccccc1)NC(=O)[C@H](CC(N)=O)NC(=O)[C@H](C)NC(=O)[C@H](CC(C)C)NC(=O)[C@H](CCCNC(=N)N)NC(=O)[C@H](CCC(N)=O)NC(=O)[C@@H](NC(=O)[C@H](C)NC(=O)[C@@H]1CSSC[C@H](NC(=O)[C@H](CCC(=O)O)NC(=O)CC[C@H](NC(=O)CCCCCCCCCCCCCCCCCCC(=O)O)C(=O)O)C(=O)N[C@@H](CC(N)=O)C(=O)N[C@@H]([C@@H](C)O)C(=O)N[C@@H](C)C(=O)N[C@@H]([C@@H](C)O)C(=O)N1)[C@@H](C)O)C(=O)N[C@@H](CC(C)C)C(=O)N1CCC[C@H]1C(=O)N1CCC[C@H]1C(=O)N[C@H](C(=O)N[C@@H](CC(N)=O)C(=O)N[C@H](C(=O)NCC(=O)N[C@@H](CO)C(=O)N[C@@H](CC(N)=O)C(=O)N[C@H](C(=O)N[C@@H](Cc1ccc(O)cc1)C(N)=O)[C@@H](C)O)C(C)C)[C@@H](C)O
B5: N-alpha-[(S)-4-Carboxy-4-(19-carboxynonadecanoylamino)butyryl]-His-[His1,His17,Arg18]-pramlintide (peptide)
peptide: HHCNTATCATQRLANFLHRSSNNFGPILPPTNVGSNTY-NH2
modifications: disulfide 3-8; not fully specified (N-terminus); printed as N-alpha-[(S)-4-Carboxy-4-(19-carboxynonadecanoylamino)butyryl]-His-[His1,His17,Arg18]-pramlintide
B6: N-alpha-[(S)-4-Carboxy-4-(19-carboxynonadecanoylamino)butyryl]-[His17,Asp31]-pramlintide (2-37) (peptide)
peptide: {C20 diacid-γGlu}-CNTATCATQRLANFLHHSSNNFGPILPPTDVGSNTY-NH2
modifications: disulfide 1-6
SMILES: CC[C@H](C)[C@H](NC(=O)[C@@H]1CCCN1C(=O)CNC(=O)[C@H](Cc1ccccc1)NC(=O)[C@H](CC(N)=O)NC(=O)[C@H](CC(N)=O)NC(=O)[C@H](CO)NC(=O)[C@H](CO)NC(=O)[C@H](Cc1c[nH]cn1)NC(=O)[C@H](Cc1c[nH]cn1)NC(=O)[C@H](CC(C)C)NC(=O)[C@H](Cc1ccccc1)NC(=O)[C@H](CC(N)=O)NC(=O)[C@H](C)NC(=O)[C@H](CC(C)C)NC(=O)[C@H](CCCNC(=N)N)NC(=O)[C@H](CCC(N)=O)NC(=O)[C@@H](NC(=O)[C@H](C)NC(=O)[C@@H]1CSSC[C@H](NC(=O)CC[C@H](NC(=O)CCCCCCCCCCCCCCCCCCC(=O)O)C(=O)O)C(=O)N[C@@H](CC(N)=O)C(=O)N[C@@H]([C@@H](C)O)C(=O)N[C@@H](C)C(=O)N[C@@H]([C@@H](C)O)C(=O)N1)[C@@H](C)O)C(=O)N[C@@H](CC(C)C)C(=O)N1CCC[C@H]1C(=O)N1CCC[C@H]1C(=O)N[C@H](C(=O)N[C@@H](CC(=O)O)C(=O)N[C@H](C(=O)NCC(=O)N[C@@H](CO)C(=O)N[C@@H](CC(N)=O)C(=O)N[C@H](C(=O)N[C@@H](Cc1ccc(O)cc1)C(N)=O)[C@@H](C)O)C(C)C)[C@@H](C)O
B7: N-alpha-[(S)-4-Carboxy-4-(19-carboxynonadecanoylamino)butyryl]-Glu-Arg-[Glu1,Asp14,His17,Gln21,Ala25,Pro26,Ser28,Ser29]-pramlintide (peptide)
peptide: X2-ERECNTATCATQRLADFLHHSSQNFGAPLSSTNVGSNTY-NH2
modifications: disulfide 4-9
SMILES: CC(C)C[C@H](NC(=O)[C@H](CCCNC(=N)N)NC(=O)[C@H](CCC(N)=O)NC(=O)[C@@H](NC(=O)[C@H](C)NC(=O)[C@@H]1CSSC[C@H](NC(=O)[C@H](CCC(=O)O)NC(=O)[C@H](CCCNC(=N)N)NC(=O)[C@H](CCC(=O)O)NC(=O)CC[C@H](NC(=O)CCCCCCCCCCCCCCCCCCC(=O)O)C(=O)O)C(=O)N[C@@H](CC(N)=O)C(=O)N[C@@H]([C@@H](C)O)C(=O)N[C@@H](C)C(=O)N[C@@H]([C@@H](C)O)C(=O)N1)[C@@H](C)O)C(=O)N[C@@H](C)C(=O)N[C@@H](CC(=O)O)C(=O)N[C@@H](Cc1ccccc1)C(=O)N[C@@H](CC(C)C)C(=O)N[C@@H](Cc1c[nH]cn1)C(=O)N[C@@H](Cc1c[nH]cn1)C(=O)N[C@@H](CO)C(=O)N[C@@H](CO)C(=O)N[C@@H](CCC(N)=O)C(=O)N[C@@H](CC(N)=O)C(=O)N[C@@H](Cc1ccccc1)C(=O)NCC(=O)N[C@@H](C)C(=O)N1CCC[C@H]1C(=O)N[C@@H](CC(C)C)C(=O)N[C@@H](CO)C(=O)N[C@@H](CO)C(=O)N[C@H](C(=O)N[C@@H](CC(N)=O)C(=O)N[C@H](C(=O)NCC(=O)N[C@@H](CO)C(=O)N[C@@H](CC(N)=O)C(=O)N[C@H](C(=O)N[C@@H](Cc1ccc(O)cc1)C(N)=O)[C@@H](C)O)C(C)C)[C@@H](C)O
B8: N-alpha-[(S)-4-Carboxy-4-(19-carboxynonadecanoylamino)butyryl]-Glu-[Glu1,Arg17]-pramlintide (peptide)
peptide: EECNTATCATQRLANFLRHSSNNFGPILPPTNVGSNTY-NH2
modifications: disulfide 3-8; not fully specified (N-terminus); printed as N-alpha-[(S)-4-Carboxy-4-(19-carboxynonadecanoylamino)butyryl]-Glu-[Glu1,Arg17]-pramlintide
B9: N-alpha-[(S)-4-Carboxy-4-(19-carboxynonadecanoylamino)butyryl]-Glu-[Glu1,His17]-pramlintide (peptide)
peptide: EECNTATCATQRLANFLHHSSNNFGPILPPTNVGSNTY-NH2
modifications: disulfide 3-8; not fully specified (N-terminus); printed as N-alpha-[(S)-4-Carboxy-4-(19-carboxynonadecanoylamino)butyryl]-Glu-[Glu1,His17]-pramlintide
B10: N-alpha-[(S)-4-Carboxy-4-(19-carboxynonadecanoylamino)butyryl]-[His17]-pramlintide (2-37) (peptide)
peptide: {C20 diacid-γGlu}-CNTATCATQRLANFLHHSSNNFGPILPPTNVGSNTY-NH2
modifications: disulfide 1-6

These binders were tested against T1, Amylin 3(a) receptor (human calcitonin …) (assay: cell-based or functional assay).

| Potency Luciferase | Binder |
| --- | --- |
| 0.08 nM | B1 |
| 0.2 nM | B2 |
| 0.09 nM | B3 |
| 0.2 nM | B4 |
| 0.2 nM | B5 |
| 0.06 nM | B6 |
| 0.06 nM | B7 |
| 0.3 nM | B8 |
| 0.3 nM | B9 |
| 0.1 nM | B10 |
